The source of these data is paper PMC8364239 (The Plant Cell, 2021).

Assay [1] concerns the target T1, His6-tagged SEC5B (Arabidopsis thaliana, UniProt F4HWE6 1-1090).
T1 sequence: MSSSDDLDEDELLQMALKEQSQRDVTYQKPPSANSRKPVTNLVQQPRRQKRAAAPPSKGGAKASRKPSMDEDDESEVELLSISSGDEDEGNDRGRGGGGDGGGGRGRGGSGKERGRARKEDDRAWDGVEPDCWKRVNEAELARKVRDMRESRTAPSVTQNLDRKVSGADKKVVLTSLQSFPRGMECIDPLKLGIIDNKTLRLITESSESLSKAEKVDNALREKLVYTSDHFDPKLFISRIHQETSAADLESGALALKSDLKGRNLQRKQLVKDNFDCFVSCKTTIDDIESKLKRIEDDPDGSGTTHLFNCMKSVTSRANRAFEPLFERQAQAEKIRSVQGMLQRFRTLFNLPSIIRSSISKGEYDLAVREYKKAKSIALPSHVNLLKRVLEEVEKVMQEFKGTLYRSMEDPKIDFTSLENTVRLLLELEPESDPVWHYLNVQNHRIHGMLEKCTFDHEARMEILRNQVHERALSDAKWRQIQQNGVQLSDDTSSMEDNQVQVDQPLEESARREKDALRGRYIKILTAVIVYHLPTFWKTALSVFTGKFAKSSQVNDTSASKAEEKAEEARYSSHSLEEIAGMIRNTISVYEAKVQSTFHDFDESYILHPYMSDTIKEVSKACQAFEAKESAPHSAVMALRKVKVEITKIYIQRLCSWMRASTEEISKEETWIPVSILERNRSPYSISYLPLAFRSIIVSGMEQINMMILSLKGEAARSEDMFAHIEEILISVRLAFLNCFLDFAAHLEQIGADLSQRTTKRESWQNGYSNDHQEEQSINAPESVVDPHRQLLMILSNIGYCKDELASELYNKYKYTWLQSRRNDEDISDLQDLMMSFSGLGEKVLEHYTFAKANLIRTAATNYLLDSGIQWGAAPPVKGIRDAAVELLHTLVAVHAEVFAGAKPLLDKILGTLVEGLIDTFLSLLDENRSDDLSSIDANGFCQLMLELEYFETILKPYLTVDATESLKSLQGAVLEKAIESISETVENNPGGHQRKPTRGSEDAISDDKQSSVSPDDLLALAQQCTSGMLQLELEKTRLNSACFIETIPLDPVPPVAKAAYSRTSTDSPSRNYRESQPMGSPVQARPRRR
The experiment in a line: pull-down.

Assay [2] has as its target T2, His6-tagged SEC15B (Arabidopsis thaliana, UniProt F4JHH5 1-787).
T2 sequence: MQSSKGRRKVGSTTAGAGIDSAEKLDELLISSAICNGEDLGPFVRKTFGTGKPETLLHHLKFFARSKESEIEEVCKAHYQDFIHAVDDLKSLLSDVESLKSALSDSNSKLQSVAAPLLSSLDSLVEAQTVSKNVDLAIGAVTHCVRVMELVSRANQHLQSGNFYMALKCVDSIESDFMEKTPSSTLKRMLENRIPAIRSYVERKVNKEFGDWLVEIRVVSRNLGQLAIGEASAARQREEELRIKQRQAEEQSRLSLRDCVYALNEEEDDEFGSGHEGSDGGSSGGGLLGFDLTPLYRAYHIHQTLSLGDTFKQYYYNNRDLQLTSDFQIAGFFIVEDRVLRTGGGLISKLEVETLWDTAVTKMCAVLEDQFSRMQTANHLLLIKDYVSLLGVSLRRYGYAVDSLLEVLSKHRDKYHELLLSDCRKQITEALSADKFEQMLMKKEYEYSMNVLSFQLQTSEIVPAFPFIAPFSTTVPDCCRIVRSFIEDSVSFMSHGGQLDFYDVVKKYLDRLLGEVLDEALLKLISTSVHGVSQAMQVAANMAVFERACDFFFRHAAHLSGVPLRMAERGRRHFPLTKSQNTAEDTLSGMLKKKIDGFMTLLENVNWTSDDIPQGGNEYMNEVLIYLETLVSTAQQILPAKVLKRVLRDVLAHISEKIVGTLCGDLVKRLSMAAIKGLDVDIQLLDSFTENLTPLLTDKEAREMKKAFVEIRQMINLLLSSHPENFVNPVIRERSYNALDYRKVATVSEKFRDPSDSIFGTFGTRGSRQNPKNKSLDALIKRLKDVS
The experiment in a line: pull-down.

Positions count from the first letter of the chain named. Names may count otherwise.

B1: GST-tagged myosin XIK GTD (wild type) (domain or fragment)
chain: ISPTSRTMATRSKTMLLPRTPENGNYLNGGTKTTPDMTLAVREPESEEKPQKHLNEKQQENQDLLVKCISQNLGYNGDKPVAACVIYKCLLHWRSFEVERTSVFDRIIQTIATAIEVPDNNEVLAYWLSNSATLLLLLQRTLKATGAASLTPQRRRTTSASLFGRMSQGLRGSPQSAGLSFLNRQGLTKLDDLRQVEAKYPALLFKQQLTAFLEKIYGMIRDNLKKEISPLLGLCIQAPRTSRASLVKGRAQANAVAQQALIAHWQSIRKSLNSYLNLMKANNAPPFLVRKVFTQIFSFINVQLFNSLLLRRECCSFSNGEYVKAGLAELEQWCIEATDEYAGSAWDELRHIRQAVGFLVIHQKPKKTLDEITRELCPVLSIQQLYRISTMYWDDKYGTHSVSSDVIANMRVMMTEDSNNAVSSSFLLDDDSSIPFTVEDISKSMQQVDVNDIEPPQLIRENSGFGFLLTRKEGSTS
For the molecule B1, the binding result in assay [1] and in assay [2] was “binds” each time.

B2: GST-XIK GTD K1103A (domain or fragment)
chain: B1 chain with K49A
With B2, the binding result in assay [1] is recorded as “binds”.
